Test results reported in PMC8299219 (Cell, 2021).
Residue numbers refer to the chain shown, from its start.

B1: G32R10 (antibody, V domains shown)
VH: EVQLLESGGGLVQPGGSLRLSCAASGFTFSRYAMSWVRQAPGKGLEWVSAISGSGGSTYYSDSVEGRFTISRDNSKNTLYVQMNSLRAEDTAVYYCAKDAGFIPLYYFDYWGQGTLVTVSS
VL: EIVMTQSPVTLSVSPGERATLSCRASQSVSSNLAWYQQKPGQAPRLLIYGASTRATGIPARFSGSGSGTEFTLIISSLQSEDFAVYNCQQYNNWPWTFGQGTKVEIK
B2: C30A11 (antibody, V domains shown)
VH: QVQLVQSGAEVKKPGASVKVSCKASGYTFTGYYIHWVRQAPGQGLEWMGWINPNSGVTNYAQKFQGWVTMTRDTSISTAYMELSRLKSDDTAVYYCAREMQQLEGYYYYAMDVWGQGTTVTVSS
VL: not shown
B3: C12I9 (antibody, V domains shown)
VH: QVQLVQSGAEVKKPGASVKVSCKASGYTFTGYYMHWVRQDPGQGLEWMGWINPNSGVTNYAQKFQGWVTMTRDTSISTAYMELSRLKSDDTAVYYCAREVGAVAGTFYYGLDVWGQGTTVTVSS
VL: QSALTQPRSVSGSPEQSVAISCTGTSSDVGGNNYVSWYQQHPGKAPKLMIYDVSKRPSGVPDRFSGSKSGNTASLTISGLQAEDEADYYCCSYAGSYTFGVVFGGGTKLTVL
B4: C83B8 (antibody, V domains shown)
VH: QVQLVQSGAEVKKPGSSVKVSCKASGGTFSSYAISWVRQAPGQGLEWMGGIIPIFGTANYAQKFQGRVTITADESTSTAYMELSSLKSEDTAVYYCASTSYYDSSGYYLDYWGQGTLVTVSS
VL: EIVLTQSPATLSLSPGERATLSCRASQSVSSFLAWYQQKPGQAPRLLIYDASNRATGIPARFSGSGSGTDFTLTISSLEPEDFAVYYCQQRSNWPPKITFGQGTRLEIK
B5: C163D1 (antibody, V domains shown)
VH: B4 VH with K87R, S98R, T99V, Y101G, Y108S, L109P
VL: B4 VL with F32Y, K97R, I98L, Q102G, R105K, L106V
B6: C83A10 (antibody, V domains shown)
VH: B4 VH with N59K, M81L, K87R, S98R, T99V, S100G, Y101P, L109Y
VL: B4 VL with F32Y, K97M, I98Y, R105K
B7: C102A1 (antibody, V domains shown)
VH: B4 VH with K23E, V68L, Y80F, K87R, S98R, S100Y, Y108S, L109H
VL: B4 VL with V29L, S92T, K97R
B8: C12B2 (antibody, V domains shown)
VH: B4 VH with K87R, S98R, T99M, S100D
VL: B4 VL with S31N, Q89L, K97R, I98L, Q102G, R105K, L106V
B9: G32M5 (antibody, V domains shown)
VH: EVQLLESGGGLVQPGGSLRLSCAASGFTFSSYAMSWVRQAPGKGLEWVSGISASGGSTYYADSVKGRFTISRDNSKNTLYLQMNSLRAEDTAVYYCAKDGGPYSKGPYHYYGMDVWGQGTTVTVSS
VL: QSVLTQPPSVSAAPGQKVTISCSGSSSNIGNNYVSWYQQLPGTAPKLLIYDNNKRPSGIPDRFSGSKSGTSATLGITGLQTGDEADYYCGTWDSSLSAYVFGTGTKVTVL
B10: C107A2 (antibody, V domains shown)
VH: EVQLVESGGGLVQPGGSLRLSCAASEFTVNNNYMSWVRQAPGKGLEWVSIIYSGGSTYYADSVKGRFTISRDNSKNTLYLQMNSLRAEDTAVYYCARNHITMVRGVIKYQDYWGQGTLVTVSS
VL: not shown
B11: C882C12 (antibody, V domains shown)
VH: QVQLVQSGAEVKKPGASVKVSCKASGYTFTGYYMHWVRQAPGQGLEWMGWINPNSDVTNYAQKFQGWVTMTRDTSISTAYMELSRLRSDDTAVYYCAREIPSSGYYSGGLDYWGQGTLVTVSS
VL: QSALTQPRSVSGSPGQSVTISCTGTSSDVGGYNYVSWYQQYPGKAPKLMIYDVSKRPSGVPDRFSGSKSGNTASLTISGLQAEDEADYYCCSYAGTYTGVFGGGTKLTVL

biological target: SARS-CoV-2 S ectodomain trimer, prefusion-stabilized, 2P variant (Wrapp et al., 2020) (SARS-CoV-2, Wuhan-Hu-1, UniProt P0DTC2, stabilised)

Question: Does B1 bind?
Answer: binds

Question: Does B2 bind?
Answer: binds

Question: Does B3 bind?
Answer: binds

Question: Does B4 bind?
Answer: binds

Question: Does B5 bind?
Answer: binds

Question: Does B6 bind?
Answer: binds

Question: Does B7 bind?
Answer: binds

Question: Does B8 bind?
Answer: binds

Question: Does B9 bind?
Answer: binds

Question: Does B10 bind?
Answer: binds

Question: Does B11 bind?
Answer: binds
